Measured values taken from article PMC2950890 (Nature structural & molecular biology, 2010).

Target: T1, Escherichia coli RecB (E. coli, UniProt P08394 1-1180)
T1 sequence: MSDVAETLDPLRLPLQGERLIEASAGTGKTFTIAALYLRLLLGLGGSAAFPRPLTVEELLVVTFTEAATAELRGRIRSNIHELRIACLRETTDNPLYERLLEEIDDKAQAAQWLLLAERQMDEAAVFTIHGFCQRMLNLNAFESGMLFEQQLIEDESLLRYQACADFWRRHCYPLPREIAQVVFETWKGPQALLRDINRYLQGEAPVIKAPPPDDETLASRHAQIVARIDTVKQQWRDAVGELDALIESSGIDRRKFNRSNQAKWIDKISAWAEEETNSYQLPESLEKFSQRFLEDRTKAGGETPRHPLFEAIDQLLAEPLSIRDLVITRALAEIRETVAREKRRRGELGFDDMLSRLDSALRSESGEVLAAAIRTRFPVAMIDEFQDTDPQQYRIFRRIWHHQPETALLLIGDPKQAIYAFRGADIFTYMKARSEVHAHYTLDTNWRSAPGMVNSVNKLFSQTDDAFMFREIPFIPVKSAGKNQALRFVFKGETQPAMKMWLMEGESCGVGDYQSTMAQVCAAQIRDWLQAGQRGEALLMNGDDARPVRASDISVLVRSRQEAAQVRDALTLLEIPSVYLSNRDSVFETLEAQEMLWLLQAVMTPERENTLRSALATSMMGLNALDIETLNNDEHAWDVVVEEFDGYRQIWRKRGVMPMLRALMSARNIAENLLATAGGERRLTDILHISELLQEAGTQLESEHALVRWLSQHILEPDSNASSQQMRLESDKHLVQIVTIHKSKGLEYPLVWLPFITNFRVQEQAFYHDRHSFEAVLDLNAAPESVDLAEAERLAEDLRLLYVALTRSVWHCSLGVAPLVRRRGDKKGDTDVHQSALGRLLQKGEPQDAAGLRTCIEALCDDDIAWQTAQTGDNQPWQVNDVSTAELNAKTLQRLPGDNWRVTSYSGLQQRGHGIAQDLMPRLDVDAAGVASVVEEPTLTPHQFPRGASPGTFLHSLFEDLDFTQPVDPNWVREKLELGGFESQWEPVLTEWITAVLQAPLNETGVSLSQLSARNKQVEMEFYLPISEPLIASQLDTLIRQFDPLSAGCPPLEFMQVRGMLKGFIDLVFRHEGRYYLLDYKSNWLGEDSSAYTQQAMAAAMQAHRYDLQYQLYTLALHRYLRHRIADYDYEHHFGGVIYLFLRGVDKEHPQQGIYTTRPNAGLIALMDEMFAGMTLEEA
Test: reconstitution of the complex from separately purified subunits

B1: Escherichia coli RecC (natural protein)
chain: MLRVYHSNRLDVLEALMEFIVERERLDDPFEPEMILVQSTGMAQWLQMTLSQKFGIAANIDFPLPASFIWDMFVRVLPEIPKESAFNKQSMSWKLMTLLPQLLEREDFTLLRHYLTDDSDKRKLFQLSSKAADLFDQYLVYRPDWLAQWETGHLVEGLGEAQAWQAPLWKALVEYTHQLGQPRWHRANLYQRFIETLESATTCPPGLPSRVFICGISALPPVYLQALQALGKHIEIHLLFTNPCRYYWGDIKDPAYLAKLLTRQRRHSFEDRELPLFRDSENAGQLFNSDGEQDVGNPLLASWGKLGRDYIYLLSDLESSQELDAFVDVTPDNLLHNIQSDILELENRAVAGVNIEEFSRSDNKRPLDPLDSSITFHVCHSPQREVEVLHDRLLAMLEEDPTLTPRDIIVMVADIDSYSPFIQAVFGSAPADRYLPYAISDRRARQSHPVLEAFISLLSLPDSRFVSEDVLALLDVPVLAARFDITEEGLRYLRQWVNESGIRWGIDDDNVRELELPATGQHTWRFGLTRMLLGYAMESAQGEWQSVLPYDESSGLIAELVGHLASLLMQLNIWRRGLAQERPLEEWLPVCRDMLNAFFLPDAETEAAMTLIEQQWQAIIAEGLGAQYGDAVPLSLLRDELAQRLDQERISQRFLAGPVNICTLMPMRSIPFKVVCLLGMNDGVYPRQLAPLGFDLMSQKPKRGDRSRRDDDRYLFLEALISAQQKLYISYIGRSIQDNSERFPSVLVQELIDYIGQSHYLPGDEALNCDESEARVKAHLTCLHTRMPFDPQNYQPGERQSYAREWLPAASQAGKAHSEFVQPLPFTLPETVPLETLQRFWAHPVRAFFQMRLQVNFRTEDSEIPDTEPFILEGLSRYQINQQLLNALVEQDDAERLFRRFRAAGDLPYGAFGEIFWETQCQEMQQLADRVIACRQPGQSMEIDLACNGVQITGWLPQVQPDGLLRWRPSLLSVAQGMQLWLEHLVYCASGGNGESRLFLRKDGEWRFPPLAAEQALHYLSQLIEGYREGMSAPLLVLPESGGAWLKTCYDAQNDAMLDDDSTLQKARTKFLQAYEGNMMVRGEGDDIWYQRLWRQLTPETMEAIVEQSQRFLLPLFRFNQS
B1: binds.
